Target: the molecule itself
Assay: crystal structure; RsaA 30 mg/mL with 5 mM CaCl2; 0.07 M KSCN, 24% (w/v) PEG 8000, 0.075 M TAPS/NaOH pH 8.5, 19°C; stacked S-layer sheets in three-dimensional crystals; long-wavelength anomalous diffraction, molecular replacement with PDB 5N8P

B1: RsaA, S-layer protein of Caulobacter crescentus (wild type, full length) (natural protein, UniProt A0A0H3C8J1 1-1026, looked up)
chain: MAYTTAQLVTAYTNANLGKAPDAATTLTLDAYATQTQTGGLSDAAALTNTLKLVNSTTAVAIQTYQFFTGVAPSAAGLDFLVDSTTNTNDLNDAYYSKFAQENRFINFSINLATGAGAGATAFAAAYTGVSYAQTVATAYDKIIGNAVATAAGVDVAAAVAFLSRQANIDYLTAFVRANTPFTAAADIDLAVKAALIGTILNAATVSGIGGYATATAAMINDLSDGALSTDNAAGVNLFTAYPSSGVSGSTLSLTTGTDTLTGTANNDTFVAGEVAGAATLTVGDTLSGGAGTDVLNWVQAAAVTALPTGVTISGIETMNVTSGAAITLNTSSGVTGLTALNTNTSGAAQTVTAGAGQNLTATTAAQAANNVAVDGGANVTVASTGVTSGTTTVGANSAASGTVSVSVANSSTTTTGAIAVTGGTAVTVAQTAGNAVNTTLTQADVTVTGNSSTTAVTVTQTAAATAGATVAGRVNGAVTITDSAAASATTAGKIATVTLGSFGAATIDSSALTTVNLSGTGTSLGIGRGALTATPTANTLTLNVNGLTTTGAITDSEAAADDGFTTINIAGSTASSTIASLVAADATTLNISGDARVTITSHTAAALTGITVTNSVGATLGAELATGLVFTGGAGADSILLGATTKAIVMGAGDDTVTVSSATLGAGGSVNGGDGTDVLVANVNGSSFSADPAFGGFETLRVAGAAAQGSHNANGFTALQLGATAGATTFTNVAVNVGLTVLAAPTGTTTVTLANATGTSDVFNLTLSSSAALAAGTVALAGVETVNIAATDTNTTAHVDTLTLQATSAKSIVVTGNAGLNLTNTGNTAVTSFDASAVTGTGSAVTFVSANTTVGEVVTIRGGAGADSLTGSATANDTIIGGAGADTLVYTGGTDTFTGGTGADIFDINAIGTSTAFVTITDAAVGDKLDLVGISTNGAIADGAFGAAVTLGAAATLAQYLDAAAAGDGSGTSVAKWFQFGGDTYVVVDSSAGATFVSGADAVIKLTGLVTLTTSAFATEVLTLA
notes: RsaA, S-layer protein of Caulobacter crescentus CB15N (NA1000), 1,026 amino acid residues; RsaANTD is residues 1-250 and RsaACTD residues 251-1,026; Full-length protein went into crystallisation; also called SLP; wild-type RsaA; source: purified from C. crescentus CB15N (NA1000) cells by low pH exposure (HiTrap SP flow-through, HiTrap Q)
Question: B1 was tested. Which “stoichiometry N” value did it give?
Answer: 6
